In patent EP4591887A1, “GPC3 ANTIBODY-DRUG CONJUGATE AND USE THEREOF” (priority 2022, dated 2024):

Columns and labels:
human GPC3 (Glypican-3) [1] = molecular target: T1, human GPC3 (Glypican-3) (human, UniProt P51654 25-580); test: FACS on HepG2 cells
T1 construct: whole, on cells; the cell line is named under assay or readout

human GPC3 (Glypican-3) [2] = molecular target: T1, human GPC3 (Glypican-3); test: FACS on HepG2 cells, top of the fitted fluorescence curve
human GPC3 (Glypican-3) [3] = molecular target: T1, human GPC3 (Glypican-3); test: cell-based or functional assay
human GPC3 (Glypican-3) [4] = molecular target: T1, human GPC3 (Glypican-3); test: cell-based or functional assay; remark: listed apart in the source
human GPC3 (Glypican-3) [5] = molecular target: T1, human GPC3 (Glypican-3); test: FACS on Huh-7 cells
human GPC3 (Glypican-3) [6] = molecular target: T1, human GPC3 (Glypican-3); test: FACS on CHO-K1 cells overexpressing human GPC3 (GPC3-CHO-K1)
human GPC3 (Glypican-3) [7] = molecular target: T1, human GPC3 (Glypican-3); test: FACS on HepG2 cells; remark: listed apart in the source
human GPC3 (Glypican-3) [8] = molecular target: T1, human GPC3 (Glypican-3); test: cell-based or functional assay; remark: listed apart in the source

Binder | EC50 (human GPC3 (Glypican-3) [1]) [µg/mL] | Top (human GPC3 (Glypican-3) [2]) | internalization on HepG2 cells (pHAb dye-labelled anti-hIgG secondary antibody, 48 h): EC50 (human GPC3 (Glypican-3) [3]) [µg/mL] | internalization on HepG2 cells (pHAb dye-labelled anti-hIgG secondary antibody, 48 h): Top (human GPC3 (Glypican-3) [3]) | Percentage reduction of GPC3 on cell surface (%), Huh7 cells, 2 h at 37°C against ice, FACS (human GPC3 (Glypican-3) [4]) [%] | EC50 (human GPC3 (Glypican-3) [5]) [pM] | EC50 (human GPC3 (Glypican-3) [6]) [pM] | EC50 (human GPC3 (Glypican-3) [7]) [pM] | EC50 value of cytotoxicity, HepG2 cells (96 h, PrestoBlue) (human GPC3 (Glypican-3) [8]) [µg/mL] | EC50 value of cytotoxicity, Huh7 cells (96 h, PrestoBlue) (human GPC3 (Glypican-3) [8]) [µg/mL]
Hu 52H5D3B8-8 (antibody, human IgG1, kappa, V domains shown, also called humanized GPC3 antibody Hu 52H5D3B8-8) VH: EVQLVQSGAEVKKPGASVKVSCKASGYTFTDYEMHWVRQAPGQGLEWMGAIHPGSGGTAYNQKFKGRVTMTADKSISTAYMELSRLRSDDTAVYYCTRFYSYAYWGQGTLVTVSS VL: DVVMTQTPLSLSVTPGQPASISCRSSQSLVHSNGNTYLQWYLQKPGQSPQLLIYKVSNRFSGVPDRFSGSGSGTDFTLKISRVEAEDVGVYFCSQSIHVPYTFGGGTKVEIKR | 0.0743 | 75000 | 0.78 | 62400 | 65.3 | 418 | 411 | 351 | – | –
Hu 52H5D3B8-8-L1-D1 (antibody, human IgG1, kappa, V domains shown, MC-vc-PAB-MMAE (L1-D1) on cysteine thiols freed by TCEP reduction of disulfide bonds; positions not given) VH: EVQLVQSGAEVKKPGASVKVSCKASGYTFTDYEMHWVRQAPGQGLEWMGAIHPGSGGTAYNQKFKGRVTMTADKSISTAYMELSRLRSDDTAVYYCTRFYSYAYWGQGTLVTVSS VL: DVVMTQTPLSLSVTPGQPASISCRSSQSLVHSNGNTYLQWYLQKPGQSPQLLIYKVSNRFSGVPDRFSGSGSGTDFTLKISRVEAEDVGVYFCSQSIHVPYTFGGGTKVEIKR | – | – | – | – | 66.5 | – | – | – | 0.0409 | 0.038
Hu 52H5D3B8-7-L1-D1 (antibody, human IgG1, kappa, V domains shown, MC-vc-PAB-MMAE (L1-D1) on cysteine thiols freed by TCEP reduction of disulfide bonds; positions not given) VH: EVQLVQSGAEVKKPGASVKVSCKASGYTFTDYEMHWVRQAPGQGLEWMGAIHPGSGGTAYNQKFKGRVTMTADKSISTAYMELSRLRSDDTAVYYCTRFYSYAYWGQGTLVTVSS VL: DVVMTQTPLSLSVTPGQPASISCRSSQSLVHSNGNTYLQWYLQKPGQSPQLLIYKVSNRFSGVPDRFSGSGSGTDFTLKISRVEAEDVGVYYCSQSIHVPYTFGGGTKVEIKR | – | – | – | – | 70.8 | – | – | – | – | –
Y035 antibody (CARSGEN Therapeutics), humanized (antibody, V domains shown) VH: EVQLVQSGAEVKKPGASVKVSCKASGYTHSDYEMHWVRQAPGQGLEWMGAIHPGSGDTAYNQRFKGRVTITADKSTSTAYMELSSLRSEDTAVYYCARFYSYAYWGQGTLVTVSA VL: DIVMTQTPLSLPVTPGEPASISCRSSQSLVHSNGNTYLQWYLQKPGQSPQLLIYKVSNRFSGVPDRFSGSGSGTDFTLKISRVEAEDVGVYYCSQSIYVPYTFGQGTKLEIKR | – | – | 1.08 | 52000 | – | 1180 | 1460 | 1250 | – | –
Hu 52H5D3B8-7-L4-D4 (antibody, human IgG1, kappa, V domains shown, MC-MMAF (L4-D4) on cysteine thiols freed by TCEP reduction of disulfide bonds; positions not given) VH: EVQLVQSGAEVKKPGASVKVSCKASGYTFTDYEMHWVRQAPGQGLEWMGAIHPGSGGTAYNQKFKGRVTMTADKSISTAYMELSRLRSDDTAVYYCTRFYSYAYWGQGTLVTVSS VL: DVVMTQTPLSLSVTPGQPASISCRSSQSLVHSNGNTYLQWYLQKPGQSPQLLIYKVSNRFSGVPDRFSGSGSGTDFTLKISRVEAEDVGVYYCSQSIHVPYTFGGGTKVEIKR | – | – | – | – | – | – | – | – | – | 0.00455
Hu 52H5D3B8-8-ZLA (antibody, human IgG1, kappa, V domains shown, ZLA linker-payload on cysteine thiols freed by TCEP reduction of disulfide bonds; positions not given, Constant regions as for Hu 52H5D3B8-8; also called Hu 52H5D3B8-8 ADC; Anti-GPC3-ZLA) VH: EVQLVQSGAEVKKPGASVKVSCKASGYTFTDYEMHWVRQAPGQGLEWMGAIHPGSGGTAYNQKFKGRVTMTADKSISTAYMELSRLRSDDTAVYYCTRFYSYAYWGQGTLVTVSS VL: DVVMTQTPLSLSVTPGQPASISCRSSQSLVHSNGNTYLQWYLQKPGQSPQLLIYKVSNRFSGVPDRFSGSGSGTDFTLKISRVEAEDVGVYFCSQSIHVPYTFGGGTKVEIKR | 0.0569 | 69100 | – | – | 64.3 | – | – | – | 0.0391 | 0.00352
Hu 52H5D3B8-8-L4-D4 (antibody, human IgG1, kappa, V domains shown, MC-MMAF (L4-D4) on cysteine thiols freed by TCEP reduction of disulfide bonds; positions not given, Constant regions as for Hu 52H5D3B8-8; also called Hu 52H5D3B8-8 ADC; Anti-GPC3-L4-D4) VH: EVQLVQSGAEVKKPGASVKVSCKASGYTFTDYEMHWVRQAPGQGLEWMGAIHPGSGGTAYNQKFKGRVTMTADKSISTAYMELSRLRSDDTAVYYCTRFYSYAYWGQGTLVTVSS VL: DVVMTQTPLSLSVTPGQPASISCRSSQSLVHSNGNTYLQWYLQKPGQSPQLLIYKVSNRFSGVPDRFSGSGSGTDFTLKISRVEAEDVGVYFCSQSIHVPYTFGGGTKVEIKR | 0.0693 | 72900 | – | – | 63.4 | – | – | – | – | –
Hu 52H5D3B8-8-L3-D3 (antibody, human IgG1, kappa, V domains shown, MA-PEG4-VC-PAB-DMEA-Duocarmycin SA (L3-D3) on cysteine thiols freed by TCEP reduction of disulfide bonds; positions not given) VH: EVQLVQSGAEVKKPGASVKVSCKASGYTFTDYEMHWVRQAPGQGLEWMGAIHPGSGGTAYNQKFKGRVTMTADKSISTAYMELSRLRSDDTAVYYCTRFYSYAYWGQGTLVTVSS VL: DVVMTQTPLSLSVTPGQPASISCRSSQSLVHSNGNTYLQWYLQKPGQSPQLLIYKVSNRFSGVPDRFSGSGSGTDFTLKISRVEAEDVGVYFCSQSIHVPYTFGGGTKVEIKR | – | – | – | – | 65 | – | – | – | – | 0.0274
Hu 52H5D3B8-7/8 CDRs with Y035 FRs (antibody, V domains shown) VH: EVQLVQSGAEVKKPGASVKVSCKASGYTHSDYEMHWVRQAPGQGLEWMGAIHPGSGGTAYNQKFKGRVTITADKSTSTAYMELSSLRSEDTAVYYCARFYSYAYWGQGTLVTVSA VL: DIVMTQTPLSLPVTPGEPASISCRSSQSLVHSNGNTYLQWYLQKPGQSPQLLIYKVSNRFSGVPDRFSGSGSGTDFTLKISRVEAEDVGVYYCSQSIHVPYTFGQGTKLEIKR | – | – | 1.14 | 59200 | – | 782 | 763 | 769 | – | –
Y035 CDRs with Hu 52H5D3B8-7 FRs (antibody, V domains shown, built here from the pieces; detected with anti-human IgG) VH: EVQLVQSGAEVKKPGASVKVSCKASGYTFTDYEMHWVRQAPGQGLEWMGAIHPGSGDTAYNQRFKGRVTMTADKSISTAYMELSRLRSDDTAVYYCTRFYSYAYWGQGTLVTVSS VL: DVVMTQTPLSLSVTPGQPASISCRSSQSLVHSNGNTYLQWYLQKPGQSPQLLIYKVSNRFSGVPDRFSGSGSGTDFTLKISRVEAEDVGVYYCSQSIYVPYTFGGGTKVEIK | – | – | 1.11 | 52200 | – | 667 | 907 | 611 | – | –
Hu 52H5D3B8-7 (antibody, human IgG1, kappa, V domains shown, also called humanized GPC3 antibody Hu 52H5D3B8-7) VH: EVQLVQSGAEVKKPGASVKVSCKASGYTFTDYEMHWVRQAPGQGLEWMGAIHPGSGGTAYNQKFKGRVTMTADKSISTAYMELSRLRSDDTAVYYCTRFYSYAYWGQGTLVTVSS VL: DVVMTQTPLSLSVTPGQPASISCRSSQSLVHSNGNTYLQWYLQKPGQSPQLLIYKVSNRFSGVPDRFSGSGSGTDFTLKISRVEAEDVGVYYCSQSIHVPYTFGGGTKVEIKR | – | – | 0.72 | 58600 | 64.4 | 464 | 446 | 405 | – | –
GC33 antibody (Chugai Pharmaceutical) (antibody, V domains shown, Control antibody, prepared as in US 7919086 B2; Whole antibody; Detected with anti-human IgG) VH: QVQLVQSGAEVKKPGASVKVSCKASGYTFTDYEMHWVRQAPGQGLEWMGALDPKTGDTAYSQKFKGRVTLTADKSTSTAYMELSSLTSEDTAVYYCTRFYSYTYWGQGTLVTVSS VL: DVVMTQSPLSLPVTPGEPASISCRSSQSLVHSNGNTYLHWYLQKPGQSPQLLIYKVSNRFSGVPDRFSGSGSGTDFTLKISRVEAEDVGVYYCSQNTHVPPTFGQGTKLEIK | 0.269 | 64100 | – | – | 60 | 953 | 956 | 745 | – | –
GC33-L3-D3 (antibody, V domains shown, MA-PEG4-VC-PAB-DMEA-Duocarmycin SA (L3-D3) on cysteine thiols of the antibody freed by TCEP reduction of disulfide bonds; positions not given) VH: QVQLVQSGAEVKKPGASVKVSCKASGYTFTDYEMHWVRQAPGQGLEWMGALDPKTGDTAYSQKFKGRVTLTADKSTSTAYMELSSLTSEDTAVYYCTRFYSYTYWGQGTLVTVSS VL: DVVMTQSPLSLPVTPGEPASISCRSSQSLVHSNGNTYLHWYLQKPGQSPQLLIYKVSNRFSGVPDRFSGSGSGTDFTLKISRVEAEDVGVYYCSQNTHVPPTFGQGTKLEIK | – | – | – | – | 59.9 | – | – | – | – | 0.0694
GC33-L4-D4 (antibody, V domains shown, MC-MMAF (L4-D4) on cysteine thiols of the antibody freed by TCEP reduction of disulfide bonds; positions not given, Whole antibody; also called GC33 ADC; Anti-GPC3-L4-D4) VH: QVQLVQSGAEVKKPGASVKVSCKASGYTFTDYEMHWVRQAPGQGLEWMGALDPKTGDTAYSQKFKGRVTLTADKSTSTAYMELSSLTSEDTAVYYCTRFYSYTYWGQGTLVTVSS VL: DVVMTQSPLSLPVTPGEPASISCRSSQSLVHSNGNTYLHWYLQKPGQSPQLLIYKVSNRFSGVPDRFSGSGSGTDFTLKISRVEAEDVGVYYCSQNTHVPPTFGQGTKLEIK | 0.112 | 60200 | – | – | 61.3 | – | – | – | – | 0.00882
GC33-ZLA (antibody, V domains shown, ZLA linker-payload on cysteine thiols of the antibody freed by TCEP reduction of disulfide bonds; positions not given, Whole antibody; also called GC33 ADC; Anti-GPC3-ZLA) VH: QVQLVQSGAEVKKPGASVKVSCKASGYTFTDYEMHWVRQAPGQGLEWMGALDPKTGDTAYSQKFKGRVTLTADKSTSTAYMELSSLTSEDTAVYYCTRFYSYTYWGQGTLVTVSS VL: DVVMTQSPLSLPVTPGEPASISCRSSQSLVHSNGNTYLHWYLQKPGQSPQLLIYKVSNRFSGVPDRFSGSGSGTDFTLKISRVEAEDVGVYYCSQNTHVPPTFGQGTKLEIK | 0.143 | 68000 | – | – | 59 | – | – | – | 0.0892 | 0.0148
